Laboratory results: article PMC2935386
pKd: −log10 of the molar value.

Target: fluorescein-labelled zinc finger region of GATA2 (GATA2-Zf), residues 291-412 (UniProt P23769)
Test: fluorescence polarisation; fluorescence anisotropy; 10nM fluorescein-labeled GATA2-Zf titrated with unlabeled, unliganded TR DBD-LBD or TR DBD, 1nM to 10.000nM; 10°C, 50mM NaCl, 20mM Hepes pH8.0, 3mM dithiothreitol, 5% glycerol

Sequence of fluorescein-labelled zinc finger region of GATA2 (GATA2-Zf), residues 291-412 (P23769 291-412): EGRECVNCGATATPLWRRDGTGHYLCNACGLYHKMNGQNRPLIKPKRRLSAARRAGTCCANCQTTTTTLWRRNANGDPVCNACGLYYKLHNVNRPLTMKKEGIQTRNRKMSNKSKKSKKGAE

pKd: 5.71
Substance: human TRβ1ΔAB/EF (TR DBD), thyroid hormone receptor β1 residues 102-198, poly-histidine construct (from UniProt P10828-1 102-198) (domain or fragment)
